One protein from FireProtDB (doi:10.1016/s0022-2836(03)00725-3) can be followed below.

For this data set the following is noted: Escherichia coli (strain K12), pH 7.4, Thermal, DSC, sodium phosphate 10 mM, transition: 3, reversible: yes, whole UniProt chain shown.

Several values for one entry are separate records, joined by “and”; a condition that tells them apart may be missing. Equal entries are not always repeated.

B1: DNA-binding protein HU-alpha wild type, P0ACF0 (protein)
chain: MNKTQLIDVIAEKAELSKTQAKAALESTLAAITESLKEGDAVQLVGFGTFKVNHRAERTGRNPQTGKEIKIAAANVPAFVSGKALKDAVK
In the case of B1, for the setting “NaCl 1 M”, the “heat capacity change of unfolding” value is 0.55 kcal/mol/K and 0.9 kcal/mol/K; the “unfolding enthalpy (calorimetric)” value was 49.7 kcal/mol and 39.3 kcal/mol and 33.7 kcal/mol. Besides, where the note is “NaCl 1M”, the Tm stood at 69 °C, the “heat capacity change of unfolding” value came to 0.55 kcal/mol/K and the “unfolding enthalpy (calorimetric)” value came out at 42.8 kcal/mol.

Usually Tm stands for the temperature at the midpoint of the melting transition.
